From paper PMC7970865
“And” between values parts separate entries of the source, which are not always exact repeats. Equal values may be shown once.

Legend:
[1] = biological target: nearly full-length recombinant FL-CSP (Plasmodium falciparum) (UniProt Q7K740); test: BLI; Octet RED96; biotinylated FL-CSP or biotinylated NANPx6 on streptavidin biosensors, Fab in solution, kinetics buffer; global fit to 1:1 Langmuir model
[2] = biological target: nearly full-length recombinant FL-CSP (Plasmodium falciparum) (UniProt Q7K740); test: ELISA
[3] = biological target: nearly full-length recombinant FL-CSP (Plasmodium falciparum) (UniProt Q7K740); test: BLI; Octet RED384; FL-CSP amine-coupled to AR2G biosensors, bivalent mAb in solution, 1x kinetics buffer, 25 °C; 1:1 Langmuir model; mean of quadruplicate measurements
[4] = biological target: nearly full-length recombinant P. falciparum circumsporozoite protein (FL-CSP) (Plasmodium falciparum) (UniProt Q7K740); test: BLI

Fab CIS43 was tested, and the Kd [1] was 2 nM, the koff [1] was 4.8e-05 s⁻¹ and the kon [1] was 28000 M⁻¹ s⁻¹.

Substance mAb CIS43 (antibody) has a ng/ml mAb needed for OD = 1 [2] of under 6 ng/mL, a Kd [3] of 0.46 nM and a koff [3] of 0.000692 s⁻¹. For the same substance, the kon [3] was 1.5e+06 M⁻¹ s⁻¹.

In the case of “mAb CIS43 (intact human IgG1) (antibody)”, the kon [4] is reported as 1.4e+06 1/(M s) (2×) and 1.7e+06 1/(M s) and 1.6e+06 1/(M s).
